B1: IgG1-F1262 (antibody)
heavy: QVQLQESGPGLVKPSETLSLTCAVSGHSISHDHAWSWVRQPPGEGLEWIGFISYSGITNYNPSLQGRVTISRDNSKNTLYLQMNSLRAEDTAVYYCARSLARTTAMDYWGEGTLVTVSSASTKGPSVFPLAPSSKSTSGGTAALGCLVKDYFPEPVTVSWNSGALTSGVHTFPAVLQSSGLYSLSSVVTVPSSSLGTQTYICNVNHKPSNTKVDKKVEPKSCDKTHTCPPCPAPELRGGPKVFLFPPKPKDTLYISRTPEVTCVVVDVSHEDPEVKFNWYVDGVEVHNAKTKPREEQYNSTYRVVSVLTVLHQDWLNGKEYKCKVSNKALPAPIEKTISKAKGQPREPQVYTLPPSRDELTKNQVSLTCLVKGFYPSDIAVEWESNGQPENNYKTTPPVLDSDGSFFLYSKLTVDKSRWQQGNVFSCSVMHEALHYHVTKKELSLSP
light: not shown
notes: EU numbering; copies: 2 + 2
B2: IgG1-F1207 (antibody)
heavy: B1 heavy with R237L, K241S, Y254M, I334E, M430L, Y436S, V438Y, K440Q, E442S
light: not shown
notes: EU numbering; copies: 2 + 2
B3: IgG1-F1194 (antibody)
heavy: B1 heavy with R237L, K241S, K440R, K441D
light: not shown
notes: EU numbering; copies: 2 + 2
B4: IgG1-F1185 (antibody)
heavy: B1 heavy with R237L, K241S, Y254M, T309A, E382A, M430L, Y436S, V438Y, K440Q, E442S
light: not shown
notes: EU numbering; copies: 2 + 2
B5: IgG1-F1198 (antibody)
heavy: B1 heavy with R237L, K241S, T258E, K440R
light: not shown
notes: EU numbering; copies: 2 + 2
B6: IgG1-F1191 (antibody)
heavy: B1 heavy with R237L, K241S, T439A, K440R
light: not shown
notes: EU numbering; copies: 2 + 2
B7: IgG1-F1183 (antibody)
heavy: B1 heavy with R237L, K241S, Y254M, E382A, M430L, Y436S, V438Y, K440Q, E442S
light: not shown
notes: EU numbering; copies: 2 + 2
B8: IgG1-F1165 (antibody)
heavy: B1 heavy with R237L, P240D, K241S, T252Y, T309Q, V310P, Q313A, K440Q, E442S
light: not shown
notes: EU numbering; copies: 2 + 2
B9: IgG1-F1206 (antibody)
heavy: B1 heavy with R237L, K241S, T252V, S256T, T258Q, K440R
light: not shown
notes: EU numbering; copies: 2 + 2
B10: IgG1-F1201 (antibody)
heavy: B1 heavy with R237L, K241S, T252V, T258E, K440R
light: not shown
notes: EU numbering; copies: 2 + 2
B11: IgG1-F1202 (antibody)
heavy: B1 heavy with R237L, K241S, T252V, S256T, T258E, K440R
light: not shown
notes: EU numbering; copies: 2 + 2
B12: IgG1-F1195 (antibody)
heavy: B1 heavy with R237L, K241S, K440R, L443A
light: not shown
notes: EU numbering; copies: 2 + 2
B13: IgG1-F1211 (antibody)
heavy: B1 heavy with R237L, K241S, L253H, K440Q, E442S
light: not shown
notes: EU numbering; copies: 2 + 2
B14: IgG1-F1161 (antibody)
heavy: B1 heavy with R237L, K241S, Y254M, I334V, S426N, V438Y, K440Q, E442S
light: not shown
notes: EU numbering; copies: 2 + 2
B15: IgG1-F1216 (antibody)
heavy: B1 heavy with R237L, K241S, L253S, K440Q, E442S
light: not shown
notes: EU numbering; copies: 2 + 2
B16: IgG1-F1205 (antibody)
heavy: B1 heavy with R237L, K241S, T252V, T258Q, K440R
light: not shown
notes: EU numbering; copies: 2 + 2
B17: IgG1-F1230 (antibody)
heavy: B1 heavy with R237L, K241S, K440R, E442D
light: not shown
notes: EU numbering; copies: 2 + 2
B18: IgG1-F1162 (antibody)
heavy: B1 heavy with R237L, P240D, K241S, T252Y, K440Q, E442S
light: not shown
notes: EU numbering; copies: 2 + 2
B19: IgG1-F1160 (antibody)
heavy: B1 heavy with R237L, K241S, Y254M, V310F, S426N, V438Y, K440Q, E442S
light: not shown
notes: EU numbering; copies: 2 + 2
B20: IgG1-F1196 (antibody)
heavy: B1 heavy with R237L, K241S, K440R, L443E
light: not shown
notes: EU numbering; copies: 2 + 2
B21: IgG1-F1189 (antibody)
heavy: B1 heavy with R237L, K241S, H435D, K440R
light: not shown
notes: EU numbering; copies: 2 + 2
B22: IgG1-F1178 (antibody)
heavy: B1 heavy with R237L, K241S, Y254M, V261I, V310F, M430L, Y436N, V438Y, K440Q, E442S
light: not shown
notes: EU numbering; copies: 2 + 2
B23: IgG1-F1163 (antibody)
heavy: B1 heavy with R237L, P240D, K241S, T252Y, T309Q, Q313A, V438Y, K440Q, E442S
light: not shown
notes: EU numbering; copies: 2 + 2
B24: IgG1-F1164 (antibody)
heavy: B1 heavy with R237L, P240D, K241S, T252Y, T309Q, Q313A, K440Q, E442S
light: not shown
notes: EU numbering; copies: 2 + 2
B25: IgG1-F1243 (antibody)
heavy: B1 heavy with S256T, K440R
light: not shown
notes: EU numbering; copies: 2 + 2
B26: IgG1-F1200 (antibody)
heavy: B1 heavy with R237L, K241S, T252V, S256T, K440R
light: not shown
notes: EU numbering; copies: 2 + 2
B27: IgG1-F1229 (antibody)
heavy: B1 heavy with R237L, K241S, I255V, K440Q, E442S
light: not shown
notes: EU numbering; copies: 2 + 2
B28: IgG1-F1244 (antibody)
heavy: B1 heavy with T258E, K440R
light: not shown
notes: EU numbering; copies: 2 + 2
B29: IgG1-F1192 (antibody)
heavy: B1 heavy with R237L, K241S, T439G, K440R
light: not shown
notes: EU numbering; copies: 2 + 2
B30: IgG1-F1199 (antibody)
heavy: B1 heavy with R237L, K241S, S256T, T258E, K440R
light: not shown
notes: EU numbering; copies: 2 + 2
B31: IgG1-F1203 (antibody)
heavy: B1 heavy with R237L, K241S, T258Q, K440R
light: not shown
notes: EU numbering; copies: 2 + 2
B32: IgG1-F1218 (antibody)
heavy: B1 heavy with R237L, K241S, L253V, K440Q, E442S
light: not shown
notes: EU numbering; copies: 2 + 2
B33: IgG1-F1204 (antibody)
heavy: B1 heavy with R237L, K241S, S256T, T258Q, K440R
light: not shown
notes: EU numbering; copies: 2 + 2
B34: IgG1-F1217 (antibody)
heavy: B1 heavy with R237L, K241S, L253T, K440Q, E442S
light: not shown
notes: EU numbering; copies: 2 + 2
B35: IgG1-F1232 (antibody)
heavy: B1 heavy with R237L, K241S, E442D
light: not shown
notes: EU numbering; copies: 2 + 2
B36: IgG1-F1197 (antibody)
heavy: B1 heavy with R237L, K241S, S256T, K440R
light: not shown
notes: EU numbering; copies: 2 + 2
B37: IgG1-F1208 (antibody)
heavy: B1 heavy with R237L, K241S, L253A, K440Q, E442S
light: not shown
notes: EU numbering; copies: 2 + 2
B38: IgG1-F1188 (antibody)
heavy: B1 heavy with R237L, K241S, Y254M, T309A, E382A, Y436H, V438Y, K440Q, E442S
light: not shown
notes: EU numbering; copies: 2 + 2
B39: IgG1-F1231 (antibody)
heavy: B1 heavy with R237L, K241S
light: not shown
notes: EU numbering; copies: 2 + 2

Residue numbers refer to the chain shown, from its start.

T1 sequence (P55899 24-297 limits assumed, chain 1 of 2): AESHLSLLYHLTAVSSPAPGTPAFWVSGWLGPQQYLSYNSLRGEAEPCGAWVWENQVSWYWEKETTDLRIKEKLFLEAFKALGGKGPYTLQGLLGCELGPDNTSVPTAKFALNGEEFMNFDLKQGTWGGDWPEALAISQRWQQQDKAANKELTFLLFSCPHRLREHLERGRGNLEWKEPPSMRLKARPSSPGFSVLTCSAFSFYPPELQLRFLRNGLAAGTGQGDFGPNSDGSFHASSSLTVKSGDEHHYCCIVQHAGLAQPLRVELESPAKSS
T1 sequence (P61769 21-119 limits assumed, chain 2 of 2): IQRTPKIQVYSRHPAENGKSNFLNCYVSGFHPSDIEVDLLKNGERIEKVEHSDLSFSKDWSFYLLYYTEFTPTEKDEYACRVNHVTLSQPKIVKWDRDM

This experiment has as its target T1, soluble human FcRn (human, UniProt P55899 24-297; P61769 21-119).
T1 construct: Heterodimer of FcRn alpha chain and beta2-microglobulin; also called hFcRn
In words: SPR (Biacore T100), antibody captured by protein L, hFcRn as analyte, pH 7.0, 25 C.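 Further: KD calculated from fitted association and dissociation rate constants of the sensorgrams, protein L amine-coupled to the sensor chip, sodium phosphate running buffer with NaCl and Tween20.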
In the case of B1, the affinity, expressed as Kd, was 130 nM.
With B2, the Kd (commonly the constant that tells how readily two partners part at equilibrium) came out at 1100 nM. Compared with the last molecule, the Kd is about 8.5-fold higher.
Next, B3: 160 nM; B4: 920 nM; B5: 78 nM.
On to B6, for which the Kd was 210 nM.
Next, B7: 1300 nM.
With B8 the figure was 16 nM.
Next, B9: 170 nM.
On to B10, for which the Kd is 110 nM.
For the molecule B11, the affinity, expressed as Kd, was 88 nM.
Next, B12: 180 nM; B13: 1200 nM.
The molecule B14 had a Kd of 1100 nM.
In turn, B15 registered a Kd of 1200 nM.
With B16, the Kd came to 200 nM.
Take B17: the Kd was found to be 110 nM.
As for B18, binding was characterised by a dissociation constant (Kd) of 340 nM.
As for B19, the Kd is 290 nM.
With B20, the Kd was found to be 150 nM.
As to B21, the Kd was found to be 160 nM.
Regarding B22, binding was characterised by a dissociation constant (Kd) of 870 nM.
Turning to B23, binding was characterised by a dissociation constant (Kd) of 150 nM.
The molecule B24 registered a dissociation constant (Kd) of 70 nM.
Molecule B25 returned an equilibrium dissociation constant (Kd) of 130 nM.
Next, B26: 130 nM.
Molecule B27 registered a Kd of 2800 nM.
Next, B28: 100 nM; B29: 130 nM.
For the molecule B30, the Kd stood at 62 nM.
Next, B31: 150 nM; B32: 250 nM; B33: 120 nM.
For B34, binding was put at a Kd of 1100 nM.
B35 came in with a Kd of 98 nM.
With B36 the figure was 95 nM.
Molecule B37 gave a Kd of 570 nM. Against the preceding molecule, the Kd is about 6-fold higher.
B38 registered a Kd of 1700 nM.
On to B39, for which the affinity, expressed as Kd, was 97 nM.

For the origin of these results see US20140363428A1 (Chugai, published 2014).
